Test results as given in article PMC11904002.

Target: T1, Signal peptide peptidase (SPP), human, with a C-terminal myc-tag (human), Q8TCT9
T1 chain: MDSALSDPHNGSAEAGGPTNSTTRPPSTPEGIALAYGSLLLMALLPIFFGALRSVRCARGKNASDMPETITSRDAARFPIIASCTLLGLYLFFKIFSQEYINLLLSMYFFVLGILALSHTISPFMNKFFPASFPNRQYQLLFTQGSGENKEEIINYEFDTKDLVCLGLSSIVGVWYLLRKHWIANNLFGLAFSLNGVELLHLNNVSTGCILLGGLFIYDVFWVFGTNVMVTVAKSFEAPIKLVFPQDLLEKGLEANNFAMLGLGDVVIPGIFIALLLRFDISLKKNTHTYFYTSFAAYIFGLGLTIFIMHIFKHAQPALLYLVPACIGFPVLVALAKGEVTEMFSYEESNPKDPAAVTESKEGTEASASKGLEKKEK
Experiment: SDS-PAGE and Western blot of cell lysate; lysate of transfected HEK cells (50 mM Tris/HCl pH 7.4, 150 mM NaCl, 1% Triton X-100, 0.1% SDS); SDS-PAGE with tris-glycine buffer; SPP band at the size of a dimer
Details: remark: other sources report otherwise

stoichiometry N: 2
B1: Signal peptide peptidase (SPP), human, with a C-terminal myc-tag, Q8TCT9-1 1-377 (enzyme)
chain: T1 chain
